Results taken from paper PMC11315935, “Multi-layered heterochromatin interaction as a switch for DIM2-mediated DNA methylation” (Nature Communications, 2024).

Test system: DIM2
Test: In vitro DNA methylation assay: effect of HP1 and H3 peptides on DIM2 activity
Format: biochemical, Neurospora Crassa
Set-up: DNA methylation activity of DIM2 in presence of HP1, WT or W98A: unit not given beside the values
Conditions: for DNA methylation activity of DIM2 in presence of HP1, WT or W98A: Sup Fig. 1e, (CTA)12/(TAG)12 DNA duplex, 1.0 µM DIM2, 2 µM HP1, 30 °C, 30 min, pH 8.0
Experimental: In vitro DNA methylation assay was performed in a 20-µL reaction mixture. For the substrate specificity assay, the following DNA duplexes were used as substrates: CG DNA (Upper strand: 5’-[…]-3’), hemimethylated CG DNA (Upper strand: 5’-TAAATTTXGATTAATAAT-3’, X = 5-methylcytosine; Lower strand: 5’-[…] -3’), CHG DNA (Upper strand: 5’-[…]-3’), and CHH DNA (Upper strand: 5’-[…]-3’). The reaction mixture contains 0.25 µM DIM2, 1.0 µM DNA duplex, 1.0 µM synthesized H3K9me3 peptide (residues 1-24 of H3 plus a C-terminal tryptophan), 0.5 µM HP1, and 0.56 µM S-adenosyl-L-[methyl-^3H] methionine with a specific activity of 18 Ci/mmol (PerkinElmer) in buffer containing 50 mM Tris-HCl (pH 8.0), 100 mM NaCl, 0.05% β-mercaptoethanol, 5% glycerol, and 200 µg/mL BSA. For the rest of the DNA methylation assay, each reaction mixture contains 1.0 µM DIM2, […] methionine with a specific activity of 18 Ci/mmol (PerkinElmer) in buffer containing 50 mM Tris-HCl (pH 8.0), 100 mM NaCl, 0.05% β-mercaptoethanol, 5% glycerol, and 200 µg/mL BSA. In addition, 1.0 µM synthesized H3K9me3 or H3K9me0 peptide (residues 1-24 of H3 plus a C-terminal tryptophan) and/or 2 µM HP1 protein was included to evaluate the effect of H3 and HP1 regulation. The reaction mixture was incubated at 30 °C for 30 min, unless indicated otherwise, before being quenched by the addition of 5 µL of 10 mM cold SAM. After the reaction, 8 μL of the mixtures was loaded onto Hybond N nylon membrane (GE Healthcare), which was left to dry out at room temperature. The membrane was subsequently washed with 0.2 M ammonium bicarbonate (pH 8.2) two times (20 min per time), deionized water (20 min) once, and 95% ethanol (5 min) once. After air dried, the membrane carrying each sample was transferred into a vial containing 3 mL scintillation buffer (Fisher). The tritium scintillation was measured and recorded by a Beckman LS6500 counter. Each the reaction was repeated three times.

B1: HP1W98A: HP1 with H3K9me3-cage mutation W98A (protein)
chain: MPYDPSALSDEEAASSVELDTRSATSSSKKQSRDKKSVKYTIPEPEDFEDEEQNGDGADEGGEDDEEGDEEEEDVYVVEKILDHMLNDDNEPLFLVKAEGYEKKSDQTWEPEDTLIEGASERLKEYFTKIGGREKIFEASAAAQKIKKRGRPSSNSGTPQASSNKRSRKNGDHPLNSEEPQTAKNAAWKPPAGSWEEHIAQLDACEDEDTHKLMVYLTWKNGHKTQHTTDVIYKRCPQKMLQFYERHVRIIKRDPDSEDREGSVSQ
modifications: left off: His6, N-terminal, cleaved | MBP, N-terminal, cleaved
notes: HP1 with H3K9me3-cage mutation W98A
- DNA methylation activity of DIM2 in presence of HP1, WT or W98A (replicate 1): 45.423
- DNA methylation activity of DIM2 in presence of HP1, WT or W98A (replicate 2): 47.119
- DNA methylation activity of DIM2 in presence of HP1, WT or W98A (replicate 3): 45.142
- increase of activity-stimulation effect of HP1 on DIM2 (W98A vs WT HP1): ~ 2 fold
